Assay results taken from patent US20240060059A1.
Values joined by “and” are separate entries in the source; they are usually repeats but may differ in a detail not shown here. Identical values can stand only once. One block for each substance: values may come before it.

Assays:
Experiment in all cases: cell-based or functional assay
[196-297]-FRB = [196-297]-FRB (UniProt P42345)
[1] = target: spHT 80 C-terminal fragment fused to FRB or FKBP
[2] = target: spHT 133 C-terminal fragment fused to FRB or FKBP
[3] = target: spHT 145 C-terminal fragment fused to FRB or FKBP
[4] = target: spHT 157 C-terminal fragment fused to FRB or FKBP
[5] = target: spHT 180 C-terminal fragment fused to FRB or FKBP

Chain of UniProt P42345 (P42345 other isoform, or with tags, fused parts or gaps limits assumed): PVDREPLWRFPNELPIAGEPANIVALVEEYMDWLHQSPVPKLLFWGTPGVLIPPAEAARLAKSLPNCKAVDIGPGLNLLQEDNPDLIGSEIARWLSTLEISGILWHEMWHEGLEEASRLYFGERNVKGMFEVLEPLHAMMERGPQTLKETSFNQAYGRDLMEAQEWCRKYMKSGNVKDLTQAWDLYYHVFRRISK

- fold fluorescence signal increase (JF646 ligand) in the presence of 50 nM rapamycin, E. coli lysates ([196-297]-FRB): 4.7 fold and > 2 fold
Substance: [1-195]-FKBP (from UniProt P62942 2-108)

- fold fluorescence signal increase (JF646 ligand) in the presence of 50 nM rapamycin, E. coli lysates [1]: > 2 fold
Substance: spHT 80 N-terminal fragment fused to FRB or FKBP

- fold fluorescence signal increase (JF646 ligand) in the presence of 50 nM rapamycin, E. coli lysates [2]: > 2 fold
Substance: spHT 133 N-terminal fragment fused to FRB or FKBP

- fold fluorescence signal increase (JF646 ligand) in the presence of 50 nM rapamycin, E. coli lysates [3]: > 2 fold
Substance: spHT 145 N-terminal fragment fused to FRB or FKBP

- fold fluorescence signal increase (JF646 ligand) in the presence of 50 nM rapamycin, E. coli lysates [4]: > 2 fold
Substance: spHT 157 N-terminal fragment fused to FRB or FKBP

- fold fluorescence signal increase (JF646 ligand) in the presence of 50 nM rapamycin, E. coli lysates [5]: > 2 fold
Substance: spHT 180 N-terminal fragment fused to FRB or FKBP
